Measurements published in doi:10.1101/2025.08.28.672897.

Molecular target: μ opioid receptor (MOR) (human) (UniProt P35372)
UniProt P35372, sequence (P35372 whole entry): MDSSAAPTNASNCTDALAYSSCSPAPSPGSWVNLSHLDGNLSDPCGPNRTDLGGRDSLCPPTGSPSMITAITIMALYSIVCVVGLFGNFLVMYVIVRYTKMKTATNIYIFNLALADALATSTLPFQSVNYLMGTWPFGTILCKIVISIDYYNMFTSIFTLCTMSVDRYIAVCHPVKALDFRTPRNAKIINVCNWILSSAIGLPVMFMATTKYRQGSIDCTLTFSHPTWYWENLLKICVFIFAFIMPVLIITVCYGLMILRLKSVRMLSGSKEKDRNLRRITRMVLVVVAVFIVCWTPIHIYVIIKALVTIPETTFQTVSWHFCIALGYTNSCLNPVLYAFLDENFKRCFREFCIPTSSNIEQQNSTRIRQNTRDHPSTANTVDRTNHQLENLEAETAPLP

Work on DAMGO (peptide) yielded a TRUPATH BRET2, Ggust activation, 0 mM sodium, pEC50 of 10.2 pEC50, a TRUPATH BRET2, Ggust activation, 140 mM sodium, pEC50 of 9.57 pEC50 and a TRUPATH BRET2, Gi1 activation, 0 mM sodium, pEC50 of 9.01 pEC50. The TRUPATH BRET2, Gi1 activation, 140 mM sodium, pEC50 was 7.55 pEC50, the TRUPATH BRET2, Gi2 activation, 0 mM sodium, pEC50 was 9.97 pEC50 and the TRUPATH BRET2, Gi2 activation, 140 mM sodium, pEC50 was 9.17 pEC50. For the same substance, the TRUPATH BRET2, Gi3 activation, 0 mM sodium, pEC50 was 9.43 pEC50, the TRUPATH BRET2, Gi3 activation, 140 mM sodium, pEC50 was 8.12 pEC50 and the TRUPATH BRET2, GoA activation, 0 mM sodium, pEC50 was 9.82 pEC50. It also gave a TRUPATH BRET2, GoA activation, 140 mM sodium, pEC50 of 9.08 pEC50, a TRUPATH BRET2, GoB activation, 0 mM sodium, pEC50 of 9.77 pEC50 and a TRUPATH BRET2, GoB activation, 140 mM sodium, pEC50 of 8.52 pEC50. The TRUPATH BRET2, Gz activation, 0 mM sodium, pEC50 was 9.66 pEC50 and the TRUPATH BRET2, Gz activation, 140 mM sodium, pEC50 was 8.82 pEC50.
